Results from article PMC10658565, “Polymorphic nanobody crystals as long‐acting intravitreal therapy for wet age‐related macular degeneration” (Bioengineering & Translational Medicine, 2023).
Substitutions are numbered along the chain they refer to. Names and notes keep the numbering of the source.

B1: mNb‐WT (VHH)
VHH: DVQLVESGGGLVQPGGSLRLSCAASGRTFSSYSMGWFRQAPGKEREFVVAISKGGYKYDAVSLEGRFTISRDNAKNTVYLQINSLRPEDTAVYYCASSRAYGSSRLRLADTYEYWGQGTLVTVSS
notes: also in PDB 8IIU (crystal of the protein without label); The 6xHis-labelled form was used for the ELISA; crystals were grown from protein without label; also called model anti‐VEGF nanobody; model nanobody mNb‐WT
B2: Mutant 4 (Y95F mutation) (VHH)
VHH: B1 VHH with Y94F
notes: as the chain of m1 with Y95F
B3: Mutant 3 (K44A/E45A mutation) (VHH)
VHH: B1 VHH with K43A, E44A
notes: as the chain of m1 with K44A and E45A
B4: Mutant 7 (Q14N mutation) (VHH)
VHH: B1 VHH with Q13N
notes: as the chain of m1 with Q14N; also in PDB 8IJS (crystal of the protein without label)
B5: Mutant 5 (Q118N mutation) (VHH)
VHH: B1 VHH with Q117N
notes: as the chain of m1 with Q118N
B6: Mutant 6 (S8A mutation) (VHH)
VHH: B1 VHH with S7A
notes: as the chain of m1 with S8A
B7: Mutant 2 (E45A mutation) (VHH)
VHH: B1 VHH with E44A
notes: as the chain of m1 with E45A; also in PDB 8IJZ (crystal of the protein without label)
B8: Mutant 1 (K44A mutation) (VHH)
VHH: B1 VHH with K43A
notes: as the chain of m1 with K44A

The binders below were run against T1, recombinant VEGF‐A165 protein (Homo sapiens (assumed), UniProt P15692-4, strain) (assay: ELISA; VEGF‐A165 coated on high adsorption plates overnight at 4°C; blocked with 5% skim milk; linear gradient of 6xHis-labelled nanobodies, 1 h at 37°C; detected with HRP‐conjugated 6xHis tag antibody, TMB, 450 nm). Conditions: both partners purified.
T1 construct: also called vascular endothelial growth factor; source: bought: SinoBiological Co. Ltd. (Cat: HPLC‐11066‐HNAH)
T1 sequence (P15692 whole entry, looked up, change not shown): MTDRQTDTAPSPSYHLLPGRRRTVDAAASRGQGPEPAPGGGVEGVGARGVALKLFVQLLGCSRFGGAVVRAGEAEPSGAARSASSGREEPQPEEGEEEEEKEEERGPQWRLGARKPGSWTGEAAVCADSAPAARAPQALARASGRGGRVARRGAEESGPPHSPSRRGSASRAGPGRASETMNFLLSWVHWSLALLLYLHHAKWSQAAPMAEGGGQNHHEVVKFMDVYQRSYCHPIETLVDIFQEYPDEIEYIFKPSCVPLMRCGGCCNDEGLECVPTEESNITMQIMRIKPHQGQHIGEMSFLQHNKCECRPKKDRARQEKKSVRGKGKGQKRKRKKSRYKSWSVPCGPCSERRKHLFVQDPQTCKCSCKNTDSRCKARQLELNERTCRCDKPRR

Row | binding result | Binder
1 | binds | B1
2 | binds | B2
3 | binds | B3
4 | binds | B4
5 | binds | B5
6 | binds | B6
7 | binds | B7
8 | binds | B8
